Assay results from the FLAb antibody collection (doi:10.7554/elife.23156).

B1: scFv; the commonest letter at each place (parent)
chain 1: EVKLDETGGGLVQPGRPMKLSCVASGFTFSDYWMNWVRQSPEKGLEWVAQIRNKPYNYETYYSDSVKGRFTISRDDSKSSVYLQMNNLRVEDMGIYYCTGSYYGMDYWGQGTSVTVS
chain 2: DVVMTQTPLSLPVSLGDQASISCRSSQSLVHSNGNTYLRWYLQKPGQSPKVLIYKVSNRFSGVPDRFSGSGSGTDFTLKISRVEAEDLGVYFCSQSTHVPWTFGGGTKLEIK

What was measured:
[1] = variants of: B1; experiment: Kd (Tite-Seq); conditions: with fluorescein; format: scFv 4-4-20, heavy + light
[2] = variants of: B1; experiment: yeast surface expression (ratio to wild type); higher = more expressed; conditions: format: scFv 4-4-20, heavy + light

| Kd [1] [µM] | Variant | yeast surface expression [2] |
| --- | --- | --- |
| 0.00265 | chain 1 T28S S30R | 0.787 |
| 0.00175 | chain 1 T28S S30M | 0.95 |
| 0.00493 | chain 1 T28E V37T | 0.693 |
| 0.000369 | chain 1 T28E V37C | 0.863 |
| ≥ 10 | chain 1 W33V N35T | 0.89 |
| ≥ 10 | chain 1 S101H D106C | 0.467 |
| ≥ 10 | chain 1 S101E M105V D106P | 0.387 |
| ≥ 10 | chain 1 Y107G G109V | 0.273 |
| 3.55 | chain 1 T28A Y32K | 1.02 |
| ≥ 10 | chain 1 G104C Y107V | 0.461 |
| ≥ 10 | chain 1 M105Y D106H W108L | 0.362 |
| ≥ 10 | chain 1 S30D W36V | 0.766 |
| 0.0391 | chain 1 M34W | 0.869 |
| ≥ 10 | chain 1 G100V D106Q | 0.639 |
| ≥ 10 | chain 1 Y32S M34S V37M | 0.65 |
| ≤ 0.000316 | chain 1 T28R S30F | 0.739 |
| ≥ 10 | chain 1 S30K W36E | 1.31 |
| ≥ 10 | chain 1 D31S W36S | 2.03 |
| ≥ 10 | chain 1 S30C W33Y | 1.04 |
| ≥ 10 | chain 1 W33H V37F | 0.859 |
| 2.47 | chain 1 Y102C G109A | 0.619 |
| ≥ 10 | chain 1 F29A Y32N | 0.832 |
| ≥ 10 | chain 1 G104N Y107K | 0.64 |
| ≥ 10 | chain 1 G104S W108R | 0.26 |

| Kd [1] [µM] | Variant | yeast surface expression [2] |
| --- | --- | --- |
| ≥ 10 | chain 1 G104Q D106K | 0.274 |
| ≥ 10 | chain 1 M105V Y107H | 0.957 |
| 0.00606 | chain 1 G100W Y102S | 0.723 |
| ≥ 10 | chain 1 G100V Y103R G104L | 0.88 |
| ≤ 0.000316 | chain 1 W108M | 1 |
| ≥ 10 | chain 1 F29I Y32G | 1.08 |
| 0.00966 | chain 1 S101A Y103E | 1.23 |
| ≥ 10 | chain 1 W33A V37W | 0.625 |
| 0.00158 | chain 1 T28F V37C | 0.588 |
| ≥ 10 | chain 1 Y32R W33I | 0.763 |
| ≥ 10 | chain 1 S101F W108F | 0.199 |
| ≥ 10 | chain 1 Y32K W33E | 0.552 |
| ≥ 10 | chain 1 S101C | 0.832 |
| ≥ 10 | chain 1 M105Q W108E | 0.438 |
| ≥ 10 | chain 1 D106H G109K | 0.265 |
| 0.0767 | chain 1 F29K S30A W36A | 0.756 |
| ≥ 10 | chain 1 G100F S101M | 0.704 |
| ≥ 10 | chain 1 G100Y D106S | 0.505 |
| ≥ 10 | chain 1 G100P M105A | 0.56 |
| 0.0132 | chain 1 F29P S30Q | 1.05 |
| ≥ 10 | chain 1 G100H Y107H | 0.348 |
| ≥ 10 | chain 1 G100K D106C | 0.0988 |
| ≥ 10 | chain 1 M34T N35D | 0.415 |
| 0.972 | chain 1 Y32M | 1.03 |

| Kd [1] [µM] | Variant | yeast surface expression [2] |
| --- | --- | --- |
| ≥ 10 | chain 1 Y32N | 1.21 |
| 0.143 | chain 1 Y32C | 1.05 |
| ≥ 10 | chain 1 T28S M34N | 0.645 |
| ≥ 10 | chain 1 M34P N35R | 1.16 |
| ≥ 10 | chain 1 F29D Y32E | 0.599 |
| ≥ 10 | chain 1 Y102R M105G | 0.754 |
| ≥ 10 | chain 1 M105P W108E G109W | 0.297 |
| ≥ 10 | chain 1 Y102F G109N | 0.27 |
| 0.0221 | chain 1 T28L D31L | 0.425 |
| 0.00672 | chain 1 F29E N35I | 0.276 |
| ≥ 10 | chain 1 Y107M G109Q | 0.353 |
| ≥ 10 | chain 1 S30E M34W N35M | 0.493 |
| ≥ 10 | chain 1 F29N M34A | 0.918 |
| 0.00871 | chain 1 S30A V37R | 1.16 |
| ≥ 10 | chain 1 F29D S30K | 0.968 |
| 0.0353 | chain 1 T28M M34C | 0.719 |
| ≥ 10 | chain 1 S101R D106L | 0.0991 |
| 0.02 | chain 1 Y102K M105N | 0.916 |
| 0.0245 | chain 1 T28V Y32R | 0.717 |
| ≥ 10 | chain 1 G104Q | 0.824 |
| 0.00184 | chain 1 T28H S30D | 0.948 |
| ≥ 10 | chain 1 T28A W33I | 1.15 |
| ≥ 10 | chain 1 F29E D31R | 0.624 |
| ≥ 10 | chain 1 S30L W33I | 0.639 |

| Kd [1] [µM] | Variant | yeast surface expression [2] |
| --- | --- | --- |
| ≥ 10 | chain 1 Y103G G109T | 0.68 |
| 0.0233 | chain 1 Y102K Y107H | 0.909 |
| ≤ 0.000316 | chain 1 T28P S30K | 1.02 |
| ≥ 10 | chain 1 S101Y Y107P | 0.489 |
| ≥ 10 | chain 1 W33R M34D | 0.356 |
| ≥ 10 | chain 1 F29V W33N | 0.722 |
| ≥ 10 | chain 1 T28G M34P N35T | 0.318 |
| ≥ 10 | chain 1 M34W N35M | 0.653 |
| ≥ 10 | chain 1 Y103I G104P G109M | 0.279 |
| ≥ 10 | chain 1 W108N G109P | 0.396 |
| ≥ 10 | chain 1 N35S | 1.04 |
| ≥ 10 | chain 1 N35I | 0.652 |
| ≥ 10 | chain 1 N35F | 0.708 |
| ≥ 10 | chain 1 F29M N35W | 0.403 |
| ≥ 10 | chain 1 G100N Y107V | 0.691 |
| ≥ 10 | chain 1 M34V V37K | 0.747 |
| 0.00184 | chain 1 M34I V37M | 0.847 |
| 0.0692 | chain 1 F29K W33R | 0.639 |
| ≥ 10 | chain 1 F29I W33A W36Y | 0.454 |
| 0.0592 | chain 1 S30T V37P |  |
| 0.000454 | chain 1 S30T V37C | 0.826 |
| ≥ 10 | chain 1 G104A D106Q Y107E | 0.519 |
| ≥ 10 | chain 1 N35H V37Y | 0.779 |
| ≥ 10 | chain 1 Y103M G109W | 0.221 |

| Kd [1] [µM] | Variant | yeast surface expression [2] |
| --- | --- | --- |
| 0.0154 | chain 1 M34N N35H | 1.84 |
| ≥ 10 | chain 1 T28Y W36M | 0.486 |
| 0.0534 | chain 1 G100S D106E | 1.15 |
| ≥ 10 | chain 1 Y103H Y107I | 1.25 |
| ≥ 10 | chain 1 F29N W33P | 0.333 |
| ≥ 10 | chain 1 G104T Y107I W108Y | 0.224 |
| ≥ 10 | chain 1 Y102Q G104L | 0.667 |
| 4.15 | chain 1 M105E | 1.01 |
| ≥ 10 | chain 1 M105G | 0.761 |
| ≥ 10 | chain 1 Y103P | 0.791 |
| 0.015 | chain 1 Y103A | 0.932 |
| 0.0158 | chain 1 Y103V | 0.701 |
| ≥ 10 | chain 1 G100N G109H | 0.236 |
| ≥ 10 | chain 1 N35C V37K | 0.542 |
| ≥ 10 | chain 1 N35C V37L | 0.527 |
| 0.00194 | chain 1 D31N M34A | 0.614 |
| ≥ 10 | chain 1 S101Y M105T | 0.44 |
| 0.00422 | chain 1 T28P W36Y | 1.05 |
| ≥ 10 | chain 1 Y103P W108M | 0.463 |
| 0.00966 | chain 1 Y103W Y107W | 0.724 |
